Test results as given in PMC5548745, “Agonist-induced dimer dissociation as a macromolecular step in G protein-coupled receptor signaling” (Nature Communications, 2017).

B1: CB1-GFP: GFP-tagged cannabinoid CB1 receptor, negative control (protein)
chain: MKSILDGLADTTFRTITTDLLYVGSNDIQYEDIKGDMASKLGYFPQKFPLTSFRGSPFQEKMTAGDNSPLVPAGDTTNITEFYNKSLSSFKENEENIQCGENFMDMECFMILNPSQQLAIAVLSLTLGTFTVLENLLVLCVILHSRSLRCRPSYHFIGSLAVADLLGSVIFVYSFVDFHVFHRKDSPNVFLFKLGGVTASFTASVGSLFLTAIDRYISIHRPLAYKRIVTRPKAVVAFCLMWTIAIVIAVLPLLGWNCKKLQSVCSDIFPLIDETYLMFWIGVTSVLLLFIVYAYMYILWKAHSHAVRMIQRGTQKSIIIHTSEDGKVQVTRPDQARMDIRLAKTLVLILVVLIICWGPLLAIMVYDVFGKMNKLIKTVFAFCSMLCLLNSTVNPIIYALRSKDLRHAFRSMFPSCEGTAQPLDNSMGDSDCLHKHANNTASMHRAAESCIKSTVKIAKVTMSVSTDTSAEAL
modifications: left off: GFP, end not stated, kept
notes: GFP-tagged cannabinoid CB1 receptor, negative control
B2: FZD6 wt: wild-type FZD6 receptor construct (SNAP-tagged in ERK assays; GFP-tagged in b181) (protein)
chain: HSLFTCEPITVPRCMKMAYNMTFFPNLMGHYDQSIAAVEMEHFLPLANLECSPNIETFLCKAFVPTCIEQIHVVPPCRKLCEKVYSDCKKLIDTFGIRWPEELECDRLQYCDETVPVTFDPHTEFLGPQKKTEQVQRDIGFWCPRHLKTSGGQGYKFLGIDQCAPPCPNMYFKSDELEFAKSFIGTVSIFCLCATLFTFLTFLIDVRRFRYPERPIIYYSVCYSIVSLMYFIGFLLGDSTACNKADEKLELGDTVVLGSQNKACTVLFMLLYFFTMAGTVWWVILTITWFLAAGRKWSCEAIEQKAVWFHAVAWGTPGFLTVMLLAMNKVEGDNISGVCFVGLYDLDASRYFVLLPLCLCVFVGLSLLLAGIISLNHVRQVIQHDGRNQEKLKKFMIRIGVFSGLYLVPLVTLLGCYVYEQVNRITWEITWVSDHCRQYHIPCPYQAKAKARPELALFMIKYLMTLIVGISAVFWVGSKKTCTEWAGFFKRNRKRDPISESRRVLQESCEFFLKHNSKVKHKKKHYKPSSHKLKVISKSMGTSTGATANHGTSAVAITSHDYLGQETLTEIQTSPETSMREVKADGASTPRLREQDCGEPASPAASISRLSGEQVDGKGQAGSVSESARSEGRISPKSDITDTGLAQSNNLQVPSSSEPSSLKGSTSLLVHPVSGVRKEQGGGCHSDT
modifications: left off: V5 (on the crosslinked copy), N-terminal, kept | mCherry (on the crosslinked copy), C-terminal, kept | GFP (on the other, mobile copy), C-terminal, kept

Columns and labels:
V5-FZD6-mCherry = experiment: dcFRAP of V5-FZD6-mCherry/CB1-GFP (negative control); type: cell-based, human; details: HEK293
Description: For dual color FRAP experiments, cells grown in four compartment 35 mm glass bottom dishes were washed three times with BE buffer[19] (150 mM NaCl, 2.5 mM KCl, 10 mM HEPES, 12 mM glucose, 0.5 mM CaCl2, and 0.5 mM MgCl2). Then, the cells were incubated at RT for 30 min with biotin-conjugated goat polyclonal anti-V5 antibody (Bethyl) diluted 1:100 in BE buffer supplemented with 2.5% bovine serum albumin. For antibody-mediated cross-linking, avidin was added and incubated for 15 min and washed two times with BE buffer before the experiments were performed. In Fig. 4, dcFRAP experiments are presented that employ chemical surface crosslinking to visualize assembly of FZD6 with DVL or heterotrimeric G proteins according to previously published protocols. Live cell imaging experiments were carried out using a Zeiss 710 laser scanning microscope. Images were acquired using a 40×, 1.2 NA C-Apochromat objective and the 488 nm and the 561 nm laser lines were used to excite GFP and mCherry fluorophores, respectively. Photobleaching was performed by 100% laser illumination of a 1.80 × 1.80 µm area placed over the cell plasma membrane. Fluorescence was measured pre- and post-bleach using low-intensity illumination for a total time period of 100 s. Average pixel intensity was measured using the ZEN2013 software, corrected for background fluctuations and bleaching artifacts and normalized to pre-bleached intensity. The recovered mobile fraction (F m) was calculated as follows: F m = (I P–I 0)/(I I–I 0), where I I is the initial intensity measured prior to bleaching, I 0 is the immediate fluorescence intensity post-bleaching and I P is intensity value post-bleaching. The mobile fraction was defined by the average of the fluorescence recovery assessed between time 85–101 s (including pre-bleach measurements). We excluded experiments in which the extracellularly tagged receptors were not sufficiently immobilized after the crosslinking procedure (cutoff at 40% crosslinking-induced reduction in mobile fraction). […]

[1] = system: ERK1/2 phosphorylation in HEK293 cells; experiment: P-ERK1/2 immunoblot, HEK293 cells expressing SNAP-FZD6 constructs; type: cell-based
Description: Fig. 6 Relationship between FZD6 dimerization and phosphorylation of ERK1/2. a Mouse lung epithelial (MLE-12) cells were stimulated with WNT-5A (300 ng ml^−1) for 0, 2.5, 5, 10, 20 min. Cell lysates were analyzed for P-ERK1/2 and β-actin by immunoblotting. Additional information in Supplementary Fig. 6. b Bar graph summarizes three independent experiments. Densitometry data were normalized to the unstimulated control. […] Additional information in Supplementary Fig. 6. SNAP-FZD6 wt- and SNAP-FZD6 dimer mutant-induced ERK1/2 phosphorylation in the absence e and presence f of the porcupine inhibitor C59 (5 µM, overnight) were probed by immunoblotting for the SNAP-tag, P-ERK1/2, total ERK1/2 and β-actin. g The bar graph summarizes densitometry data of P-ERK1/2 normalized to total ERK1/2 from 6 different experiments. P = 0.0005; F (2, 15) = 13.08. ***P < 0.001. Empty vector transfection was used as mock. h Increasing amounts of plasmid of either SNAP-FZD6 wt or SNAP-FZD6 dimer mutant in the presence of C59 show a dose-dependent increase in P-ERK1/2 only with the dimer mutant. Data from three independent experiments for the dimer mutant were fit to a linear least-squares model (slope = 0.40 ± 0.10; R ^2 = 0.5943) and this line is shown superimposed. […] This dissociation-dependent activation can be evoked by agonist (WNT^high) or mutation of the dimer interface (symbolized by red stars). WNT^low conditions can be achieved in the presence of C59, which reduces FZD6 wt signaling
MLE-12 or HEK293 cells (ATCC) were plated in a 24- or 48-well plate at a density of 100,000 or 50,000 cells/well, respectively. After 24 h, cells were transfected using Lipofectamine 2000 according to the manufacturer’s instructions. Cells were stimulated (24 h post-transfection) with 300 ng ml^−1 recombinant carrier-free WNT-5A (CF WNT-5A; R&D Systems). Stimulation was stopped by the addition of lysis buffer (1% NP-40, 150 mM NaCl, 50 mM Tris/HCl pH 8). Lysates were sonicated and analyzed by 7.5 or 10% Mini-PROTEAN TGX precast polyacrylamide gels (Bio-Rad) and transferred to PVDF membranes using the Trans-Blot Turbo system (Bio-Rad). After blocking with 5% milk or BSA in TBS-T, membranes were incubated with primary antibodies in blocking buffer: mouse anti-β-actin (1:30,000; Sigma #A5441), rabbit anti-FZD6 (1:1000; NovusBio #NBP1-00830), rabbit anti-Phospho-p44/42 MAPK (ERK1/2) (Thr202/Tyr204) (1:1000; Cell Signaling Technology #9101 L), rabbit anti-p44/42 MAPK (ERK1/2) (1:1000; Cell Signaling Technology #9102), rabbit anti-Phospho-C-RAF (Ser338) (1:1000; Cell Signaling Technology #56A6), rabbit anti-SNAP tag (1:1000, New England Biolabs #P9310S), and rabbit anti-HA (1:4000, abcam #ab9110) overnight at 4 °C. Proteins were detected with horseradish peroxidase-conjugated secondary antibodies (goat anti-rabbit and goat anti-mouse (Pierce)) and Clarity Western ECL Blotting Substrate (Bio-Rad). All uncropped immunoblots can be found in the Supplementary Information.

FZD6–FZD6 dimer = experiment: dcFRAP of V5-FZD6-mCherry/FZD6-GFP (FZD6 dimerization); type: cell-based, human; details: HEK293, 85–101 s, mean ± s.e.m.
Description: For dual color FRAP experiments, cells grown in four compartment 35 mm glass bottom dishes were washed three times with BE buffer[19] (150 mM NaCl, 2.5 mM KCl, 10 mM HEPES, 12 mM glucose, 0.5 mM CaCl2, and 0.5 mM MgCl2). Then, the cells were incubated at RT for 30 min with biotin-conjugated goat polyclonal anti-V5 antibody (Bethyl) diluted 1:100 in BE buffer supplemented with 2.5% bovine serum albumin. For antibody-mediated cross-linking, avidin was added and incubated for 15 min and washed two times with BE buffer before the experiments were performed. In Fig. 4, dcFRAP experiments are presented that employ chemical surface crosslinking to visualize assembly of FZD6 with DVL or heterotrimeric G proteins according to previously published protocols. Live cell imaging experiments were carried out using a Zeiss 710 laser scanning microscope. Images were acquired using a 40×, 1.2 NA C-Apochromat objective and the 488 nm and the 561 nm laser lines were used to excite GFP and mCherry fluorophores, respectively. Photobleaching was performed by 100% laser illumination of a 1.80 × 1.80 µm area placed over the cell plasma membrane. Fluorescence was measured pre- and post-bleach using low-intensity illumination for a total time period of 100 s. Average pixel intensity was measured using the ZEN2013 software, corrected for background fluctuations and bleaching artifacts and normalized to pre-bleached intensity. The recovered mobile fraction (F m) was calculated as follows: F m = (I P–I 0)/(I I–I 0), where I I is the initial intensity measured prior to bleaching, I 0 is the immediate fluorescence intensity post-bleaching and I P is intensity value post-bleaching. The mobile fraction was defined by the average of the fluorescence recovery assessed between time 85–101 s (including pre-bleach measurements). We excluded experiments in which the extracellularly tagged receptors were not sufficiently immobilized after the crosslinking procedure (cutoff at 40% crosslinking-induced reduction in mobile fraction). Kinetic determination of mobile fractions of crosslinked V5-FZD6-mCherry and FZD6-GFP with WNT stimulation over time were performed in one cell culture well. Measurements for each time point were performed on separate cells.
Statistical and graphical analysis was performed using Graph Pad Prism 5 software. Data were analyzed by two-tailed t-test or one-way ANOVA with Fisher’s least significant difference post hoc analysis. Curve fitting of FRAP data was done with a two-phase association nonlinear function using the least square fit. Data for receptor titration in the presence of C59 and output to P-ERK1/2 in Fig. 6h was fit to a linear regression model. All experiments were repeated at least three times in independent experiments (not representing technical replicates). For single cell analysis (dcFRAP), the number of the individual ROIs obtained from several cells in at least three independent experiments is provided in the figure legends. Data from individual ROIs are summarized for data presentation providing the sum of independent observations. Significance levels are given as: *P < 0.05; **P < 0.01; ***P < 0.001. Data in FRAP curves and bar graphs (FRAP) are presented as mean ± s.e.m.

| Molecule | CL-induced reduction in mobile fraction of CB1-GFP (V5-FZD6-mCherry; antibody-treated, co-expressing V5-FZD6-mCherry) | mobile fraction, CB1 experiment after CL (V5-FZD6-mCherry; with crosslinking, n=34) | mobile fraction, CB1 experiment before CL (V5-FZD6-mCherry; without crosslinking, n=29) | P-ERK1/2 induction in presence of C59 ([1]; HEK293, C59 5 µM overnight) | effect of overexpression on basal P-ERK1/2 without C59 ([1]; serum-starved HEK293, no C59) | mobile fraction of FZD6-GFP before CL (FZD6–FZD6 dimer; basal, without biotinylated anti-V5/avidin crosslinking, N = 21 ROIs) | mobile fraction of FZD6-GFP after CL (FZD6–FZD6 dimer; with biotinylated anti-V5/avidin crosslinking, N = 31 ROIs) |
| --- | --- | --- | --- | --- | --- | --- | --- |
| B1 | did not exhibit a reduction in the mobile fraction of CB1-GFP upon crosslinking | 77,12 ± 2,601% | 78,48 ± 2,373% |  |  |  |  |
| B2 |  |  |  | reduced to basal | increased basal P-ERK1/2 | 80,78 ± 2,053% | 70,69 ± 2,416% |
